In the supplement of paper PMC12783771:
± gives the standard deviation of the averaged measurements.

B1: library; numbered along this chain (parent)
chain: MNIQIGELAKRTACPVVTIRFYEQEGLLPPPGRSRGNFRLYGEEHVERLQFIRHCRSLDMPLSDVRTLLSYRKRPDQDCGEVNMLLDEHIRQVESRIGALLELKHHLVELREACSGARPAQSCGILQGLSDCVCDTRGTTAHPSD

Legend:
[1] = variants of: B1; test: sfGFP reporter fluorescence (15 h) (µM FITC); higher = higher leak; conditions: library round: Round 1; ligand: none
Protocol: (§1)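 Cell-free biosensing: 1 µL Echo-assembled CFE reactions with linear PbrR variant templates (5 nM) and pPbrR-sfGFP reporter, with 1 µM Pb, 30 µM Zn or no ligand; endpoint sfGFP fluorescence after 15 h at 30 °C calibrated as µM FITC. Round 1 ML-predicted PbrR mutants; 3 biological replicates.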

[2] = variants of: B1; test: sfGFP reporter fluorescence (15 h) (µM FITC); higher = stronger transcriptional activation; conditions: library round: Round 1
Protocol: as §1

Variant	sfGFP reporter fluorescence [1]	sfGFP reporter fluorescence ([2]; ligand: 1 µM Pb)	sfGFP reporter fluorescence ([2]; ligand: 30 µM Zn)
M60L D64K K104V L107C G128I	1.95 ± 0.25	2.02 ± 0.3	2.61 ± 0.17
M60L D64K L107C E109L G128I D131T	2.84 ± 0.3	2.23 ± 0.17	2.37 ± 0.23
M60L D64K P143A	0.3527 ± 0.0018	0.945 ± 0.11	2.4 ± 0.12
M60L D64K R111L	0.205 ± 0.0039	0.676 ± 0.1	1.99 ± 0.49
M60L D64T L107C	0.71 ± 0.032	0.754 ± 0.061	2.46 ± 0.078
M60L D131C	0.0866 ± 0.0039	0.248 ± 0.025	0.694 ± 0.081
M60L D135A	0.0914 ± 0.0019	0.258 ± 0.02	1.4 ± 0.16
M60L P61D D64K	0.237 ± 0.022	0.609 ± 0.14	1.82 ± 0.074
M60L P61L	0.0689 ± 0.00037	0.081 ± 0.0019	0.156 ± 0.015
M60L P61N D64K D131C	0.194 ± 0.0087	0.7 ± 0.062	1.15 ± 0.26
M60L P61N D64K K104T	0.137 ± 0.0056	0.446 ± 0.019	1.18 ± 0.11
M60L P61N D64K K104V L107E G128I	0.0622 ± 0.0024	0.0589 ± 0.0018	0.0596 ± 0.0016
M60L P61N D64K L107C G128M	2.5 ± 0.028	2.54 ± 0.22	2.51 ± 0.45
P61A L107C G128M	1.26 ± 0.063	1.47 ± 0.35	2.25 ± 0.16
P61D D64K	0.168 ± 0.0064	0.454 ± 0.038	1.44 ± 0.17
P61D D64K D135A	0.15 ± 0.0062	0.321 ± 0.036	1.12 ± 0.11
P61D D64K E112H	0.156 ± 0.0048	0.345 ± 0.087	1.36 ± 0.14
P61D D64K L107C	1.58 ± 0.082	1.54 ± 0.35	2.2 ± 0.1
P61D D64K L107C G128M	1.99 ± 0.49	2.06 ± 0.23	2.38 ± 0.037
P61D D64M R111L	0.177 ± 0.015	0.323 ± 0.09	1.43 ± 0.099
P61E D64K D131C	0.108 ± 0.0035	0.243 ± 0.036	0.676 ± 0.084
P61L D64K	0.06157 ± 0.00037	0.0655 ± 0.0074	0.06389 ± 0.00056

Variant	sfGFP reporter fluorescence [1]	sfGFP reporter fluorescence ([2]; ligand: 1 µM Pb)	sfGFP reporter fluorescence ([2]; ligand: 30 µM Zn)
P61L K104V	0.0638 ± 0.00097	0.0617 ± 0.005	0.0765 ± 0.0044
P61L L62I	0.063 ± 0.00064	0.063 ± 0.0019	0.0771 ± 0.0011
P61N C134M	0.102 ± 0.0054	0.233 ± 0.0043	1.53 ± 0.14
P61N C134V	0.095 ± 0.0057	0.189 ± 0.051	1.26 ± 0.21
P61N D64A	0.0855 ± 0.0012	0.183 ± 0.013	1.07 ± 0.098
P61N D64K D131C	0.119 ± 0.0056	0.297 ± 0.065	0.868 ± 0.068
P61N D64K D135A	0.123 ± 0.0068	0.376 ± 0.011	1.33 ± 0.12
P61N D64K K104V L107C G128I	0.427 ± 0.0081	0.961 ± 0.14	1.77 ± 0.27
P61N D64K K104V L107C G128M	0.854 ± 0.022	1.37 ± 0.39	2.24 ± 0.098
P61N D64K N83T	0.0684 ± 0.00076	0.232 ± 0.045	0.635 ± 0.034
P61N D64K V108H	0.139 ± 0.0027	0.462 ± 0.044	1.48 ± 0.026
P61N D64T	0.345 ± 0.02	1.06 ± 0.11	3.56 ± 0.13
P61N D64T D131C	0.139 ± 0.011	0.315 ± 0.076	1.1 ± 0.12
P61N D64T E112I	0.0771 ± 0.0039	0.153 ± 0.018	0.942 ± 0.03
P61N D131A P143W	0.0886 ± 0.0011	0.134 ± 0.023	0.59 ± 0.051
P61N D131C	0.108 ± 0.0091	0.428 ± 0.043	1.59 ± 0.16
P61N D131Y	0.0734 ± 0.00076	0.115 ± 0.0094	0.59 ± 0.078
P61N D135A	0.0764 ± 0.0016	0.152 ± 0.014	0.791 ± 0.096
P61N D135R	0.0732 ± 0.00085	0.164 ± 0.0087	0.708 ± 0.075
P61N E94A	0.0757 ± 0.0021	0.15 ± 0.0094	0.977 ± 0.065
P61N E94C	0.0858 ± 0.0022	0.186 ± 0.015	0.781 ± 0.13
P61N E94V	0.07452 ± 0.00056	0.145 ± 0.009	0.747 ± 0.049
